Results on three molecules are retold here after patent US20200093866A1, “Use of selected single cobrotoxin molecule as an analgesic” (priority 2018, published 2020).

Series [1] concerns Wistar rats. In words: Tail flick test (thermal radiation), Periaqueductal Gray injection. Type of series: in vivo. To be noted: PAG injection; for latency induced by thermal radiation (tail flick): 1.5, 3.0 and 6.0 μg/kg; for time at which analgesic effect appeared / time at which analgesic effect peaked: after drug administration; for maximum increase of pain threshold: tail flick. Here is the method: Most commonly, an intense light beam is focused on the animal's tail and a timer starts. When the animal flicks its tail, the timer stops and the recorded time (latency) is a measure of the pain threshold.
METHODS: Periaqueductal Gray (PAG) was injected with selected cobrotoxin molecule in rats, and the central analgesic effect was evaluated by the tail flick due to thermal radiation. 20 Wistar rats with a weight of 200±20 g were divided into 2 groups, 10 per group. […] The analgesic effect of Chain A, Cobrotoxin and Chain A, Cobrotoxin B appeared in 10˜15 minutes and peaked at 25˜30 minutes after drug administration. The maximum increase of pain threshold was over 200%.

A short description of series [2]: Quantitative microdialysis of unbound brain extracellular fluid (bECF) concentration after IV injection. The series is classed as in vivo, rat. To be noted: rats, 125I-labeled, 120 μg, dialysate over 360 minutes, FIG. 4. The source says:
The estimated molecular weights of Chain A, Cobrotoxin, Chain A, Cobrotoxin B are 6.9±0.6 KDa; the estimated molecular weights of a cobrotoxins complexes extracted from crude venom ranged from approximately 6.5 KDa to 15 KDa. Quantitative microdialysis (QMD) is used to determine the absolute unbound brain extracellular fluid (bECF) concentration of Chain A, Cobrotoxin, Chain A, Cobrotoxin B, and the cobrotoxins complexes. QMD is the only technique that enables sampling of bECF in conscious animals and provides direct evidence of exposure at extracellular target sites (Kielbasa and Stratford, Jr. 2015)
QMD consists of implanting a probe in rat (FIG.-3). The membrane of the probe will allow the exchange of perfusate with bECF, so the concentration of Chain A, Cobrotoxin, Chain A, Cobrotoxin B, and a cobrotoxins complexes in bECF could be measured through dialysate. […] In response, an in vivo recovery rate test of the probe (MD-2200) was performed on 125I-labeled Chain A, Cobrotoxin, Chain A, Cobrotoxin B, and a cobrotoxins complexes, each with three different concentrations of 5, 25, and 50 ng/ml as perfusate, with a flow rate of 2 μL/min was perfused through the probe. During microdialysis, the dialysate was collected every 10 minutes for an hour, then tested using SN629B-radioimmunoassay counter to calculate cpm. […] The recovery rate (by loss) % was calculated as: […]

For series [3], the target named is T1, nAChR (Rattus norvegicus, UniProt P09660+P25108+P25110).
T1 construct: nAChR crude extract from rat skeletal muscle; from tissue; host or cells: rat skeletal muscle (crude extract)
T1 sequence (P25108 21-457): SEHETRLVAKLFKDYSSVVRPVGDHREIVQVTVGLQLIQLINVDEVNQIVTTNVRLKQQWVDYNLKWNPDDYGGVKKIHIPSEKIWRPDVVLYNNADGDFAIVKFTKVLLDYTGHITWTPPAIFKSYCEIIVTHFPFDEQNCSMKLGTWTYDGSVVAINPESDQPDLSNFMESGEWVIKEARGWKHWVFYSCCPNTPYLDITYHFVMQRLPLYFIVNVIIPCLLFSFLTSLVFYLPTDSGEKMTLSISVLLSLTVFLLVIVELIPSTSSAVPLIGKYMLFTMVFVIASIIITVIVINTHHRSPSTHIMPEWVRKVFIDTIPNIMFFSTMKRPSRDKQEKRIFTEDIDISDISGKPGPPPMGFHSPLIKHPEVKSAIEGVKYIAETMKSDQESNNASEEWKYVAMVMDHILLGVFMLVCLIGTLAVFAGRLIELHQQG
T1 sequence (P25110 22-517): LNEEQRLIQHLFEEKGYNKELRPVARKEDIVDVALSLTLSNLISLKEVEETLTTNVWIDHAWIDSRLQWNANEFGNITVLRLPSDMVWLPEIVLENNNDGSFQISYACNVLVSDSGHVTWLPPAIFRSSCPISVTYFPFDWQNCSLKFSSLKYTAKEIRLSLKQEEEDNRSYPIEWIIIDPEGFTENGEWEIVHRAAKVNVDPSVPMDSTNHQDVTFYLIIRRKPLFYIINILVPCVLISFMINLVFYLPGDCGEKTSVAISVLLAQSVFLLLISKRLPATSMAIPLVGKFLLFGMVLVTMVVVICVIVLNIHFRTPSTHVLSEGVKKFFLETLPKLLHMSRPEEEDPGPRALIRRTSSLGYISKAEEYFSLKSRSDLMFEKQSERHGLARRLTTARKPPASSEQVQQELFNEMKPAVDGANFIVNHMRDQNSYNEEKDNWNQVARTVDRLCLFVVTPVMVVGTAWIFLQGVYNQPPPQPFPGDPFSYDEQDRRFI
T1 sequence (P09660 21-494): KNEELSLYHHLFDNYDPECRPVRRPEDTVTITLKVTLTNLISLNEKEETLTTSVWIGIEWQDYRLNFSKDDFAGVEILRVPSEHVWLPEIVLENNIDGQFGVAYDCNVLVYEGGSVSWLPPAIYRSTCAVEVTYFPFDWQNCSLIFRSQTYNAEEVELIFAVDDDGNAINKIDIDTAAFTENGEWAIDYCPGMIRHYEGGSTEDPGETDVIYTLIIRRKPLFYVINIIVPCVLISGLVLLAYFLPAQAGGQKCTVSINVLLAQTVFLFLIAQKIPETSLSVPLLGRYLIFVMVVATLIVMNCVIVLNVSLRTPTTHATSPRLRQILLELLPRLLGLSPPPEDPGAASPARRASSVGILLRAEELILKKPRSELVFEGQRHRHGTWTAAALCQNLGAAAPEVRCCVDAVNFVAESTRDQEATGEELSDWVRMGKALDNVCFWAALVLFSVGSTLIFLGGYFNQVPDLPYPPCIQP
T1 sequence (P25109 24-501 partner): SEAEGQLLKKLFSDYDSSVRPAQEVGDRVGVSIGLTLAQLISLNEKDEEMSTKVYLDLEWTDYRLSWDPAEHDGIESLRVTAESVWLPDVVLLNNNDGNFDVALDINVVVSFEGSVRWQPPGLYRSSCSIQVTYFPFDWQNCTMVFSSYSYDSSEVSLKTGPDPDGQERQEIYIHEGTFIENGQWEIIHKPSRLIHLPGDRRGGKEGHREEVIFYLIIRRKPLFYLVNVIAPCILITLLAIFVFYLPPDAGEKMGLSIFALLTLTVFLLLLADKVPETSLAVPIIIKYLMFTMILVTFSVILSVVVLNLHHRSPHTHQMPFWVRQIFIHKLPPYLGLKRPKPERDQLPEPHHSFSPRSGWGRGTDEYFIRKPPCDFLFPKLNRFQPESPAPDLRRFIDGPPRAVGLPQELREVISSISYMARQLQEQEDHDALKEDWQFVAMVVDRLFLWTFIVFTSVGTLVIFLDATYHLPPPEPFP
The series can be described thus: 125I labeled-αBtx-nAChR binding inhibition test (radio-immunoprecipitation). The note with it: nAChR crude extract from rat skeletal muscle; approximate. The source says: As shown in FIG.-2, a total of 12 fractions from the aforementioned ion-exchange chromatography were further desalted and purified by a reverse-phase HPLC (RP-HPLC) with Vydac RP-C18 (4.6×250 mm, 5.0 um). Fractions A and B were identified as high-affinity cobrotoxins with enhanced binding ability to nAChR in a later 125I labeled-αBtx-nAChR binding inhibition test. • 2) Screening and selection of single cobrotoxin molecule with high affinity binding to nAChR for better drug target engagement The 125I labeled-α-bungarotoxin(αBtx)-nAChR binding inhibition test was performed to evaluate the affinities of different cobrotoxins molecules. […] Higher the affinity of cobrotoxin with nAChR, greater the inhibitory rate toward α-bungarotoxin's binding to nAChR. In our radio-immunoprecipitation test, only nAChR bonded α-bungarotoxin will be precipitated with nicotinic acetylcholine antibody (mAb 35) and Rabbit Anti-Rat IgG, whilst unbounded α-bungarotoxin will be washed out. By testing the concentration of bonded α-bungarotoxin, we can determine the inhibitory rates of different cobrotoxins molecules isolated in step 1).
Calculation of “125I-αBtx-nAChR binding inhibitory rate (%)” […]
The 125I-αBtx-nAChR binding inhibition experiment process is performed and described in following sequence: • i. […] The (Bq) value per second was measured using the gamma radioimmunoassay counter.

Series [4] deals with Kunming mice. The series can be described thus: Acetic acid writhing test, parenteral (iv) injection. The note with it: for inhibitory rate of mice writhing / time at which analgesic effect started: 60 μg/kg iv; for inhibitory rate of mice writhing: 90 minutes after administration; for time at which analgesic effect started / frequency of writhing induced by acetic acid / ED50 of the anti-nociceptive effect of acetic acid induced writhing: mice; for frequency of writhing induced by acetic acid: 30, 45 or 60 μg/kg iv; for ED50 of the anti-nociceptive effect of acetic acid induced writhing: iv. Type of series: in vivo. The procedure:
Writhing test for the evaluation of analgesic effect by parenteral injection The writhing test is a chemical method used to induce pain of peripheral origin by injection of irritant principles like acetic acid in mice. Analgesic effect of the test compound is inferred from the decrease in the frequency of writhing.
METHOD: A total number of 60 Kunming mice were used, 10 per group, with a weight of 20±2 g. […] At dose of 60 μg/kg (iv), The analgesic effect started at 30 minutes, and could reach 60˜70% inhibitory rate of mice writhing at 90 minutes after administration. The ED50 of the anti-nociceptive effect of acetic acid induced writhing was 40˜50 μg/kg in the writhing test for Chain A, Cobrotoxin and Chain A, Cobrotoxin B.

Series [5] relates to Kunming mice. In words: Acetic acid writhing test, oral administration. The series is classed as in vivo. The note with it: for frequency of writhing induced by acetic acid: 160, 320 or 480 μg/kg oral; for ED50 of the anti-nociceptive effect of acetic acid induced writhing: oral administration. The source says: Writhing test for the evaluation of analgesic effect by oral administration METHOD: A total number of 60 Kunming mice were used, 10 per group, with a weight of 20±2 g.

Series [6] deals with Kunming mice. The series can be described thus: Acetic acid writhing test, nasal administration. To be noted: for frequency of writhing induced by acetic acid: 30, 45 or 60 μg/kg nasal; for frequency of writhing induced by acetic acid / ED50 of the anti-nociceptive effect of acetic acid induced writhing / time at which analgesic effect started: mice; for duration of analgesic effect / ED50 of the anti-nociceptive effect of acetic acid induced writhing / time at which analgesic effect started: nasal administration; for duration of analgesic effect: after drug administration. Type of series: in vivo. Here is the method:
Writhing test for the evaluation of analgesic effect by nasal administration METHOD: A total number of 60 Kunming mice were used, 10 per group, with a weight of 20±2 g. […] The analgesic effect started at 30 minutes and lasted at least for 6 hours after drug administration.

Series [7] concerns Kunming mice. The series can be described thus: Respiratory inhibition test. The series is classed as in vivo. The note with it: effective dose of 60 μg/kg, 10 Kunming mice. The source says:
4) Respiratory inhibition test Chain A, Cobrotoxin and Chain A, Cobrotoxin B were separately administered to 10 Kunming mice of 20±2 g.

The test system of series [8] is mice. To be noted: i.c.v. injection, mice (Chen and Robinson, 1990); cited from earlier work.

Regarding Chain A, Cobrotoxin B, in series [1], the “latency induced by thermal radiation (tail flick)” value is given as “dose-dependent increase”, the “ED50 of the antinociceptive effect of thermal radiation-induced tail flick” value is 3.3˜4.0 μg/kg, the “time at which analgesic effect appeared” value is 10˜15 minutes and the “time at which analgesic effect peaked” value was 25˜30 minutes. Further, the “maximum increase of pain threshold” value in series [1] is recorded as “over 200%”. Besides, the “time course of reaching bECF brain concentration versus cobrotoxins complexes” value in series [2] is on record as “always ahead of the cobrotoxins complexes in reaching a specific concentration”. Also, in series [3], the “125I-αBtx-nAChR binding inhibitory rate” value is given as 40%-50%. In series [4], the “inhibitory rate of mice writhing” value is 60˜70%, the “time at which analgesic effect started” value came out at 30 min, the “frequency of writhing induced by acetic acid” value (“frequency of writhing induced” below) is reported as “dose-dependent decrease” and the “ED50 of the anti-nociceptive effect of acetic acid induced writhing” value (shortened to “ED50 … of acetic acid induced writhing”) is given as 40˜50 μg/kg. Besides, in series [5], the “frequency of writhing induced” value is on record as “dose-dependent decrease” and the “ED50 … of acetic acid induced writhing” value is reported as 300˜350 μg/kg. In series [6], the “frequency of writhing induced” value is on record as “dose-dependent decrease”, the “duration of analgesic effect” value is not below 6 h, the “ED50 … of acetic acid induced writhing” value is given as 38˜46 μg/kg and the “time at which analgesic effect started” value was found to be 30 min. The respiratory inhibition result in series [7] was “No respiratory inhibition was observed”.

B1: cobrotoxin (protein, UniProt P60770 22-83, looked up)
Cobrotoxin: LECHNQQSSQTPTTTGCSGGETNCYKKRWRDHRGYRTERGCGCPSVKNGIEINCCTTDRCNN
Turning to B1, the “antinociceptive response in tail-flick test” value in series [8] is reported as “produced an antinociceptive response”.

B2: Chain A, Cobrotoxin (protein, UniProt P60770 22-83, looked up)
Cobrotoxin: B1 Cobrotoxin
For the molecule B2, in series [1], the “latency induced by thermal radiation (tail flick)” value is given as “dose-dependent increase”, the “ED50 of the antinociceptive effect of thermal radiation-induced tail flick” value is given as 3.3˜4.0 μg/kg, the “time at which analgesic effect appeared” value is 10˜15 minutes and the “time at which analgesic effect peaked” value was 25˜30 minutes. In series [1], the “maximum increase of pain threshold” value was “over 200%”. The “time course of reaching bECF brain concentration versus cobrotoxins complexes” value in series [2] was “always ahead of the cobrotoxins complexes in reaching a specific concentration”. Besides, the “125I-αBtx-nAChR binding inhibitory rate” value in series [3] was 40%-50%. Further, in series [4], the “inhibitory rate of mice writhing” value is listed as 60˜70%, the “time at which analgesic effect started” value is 30 min, the “frequency of writhing induced” value was “dose-dependent decrease” and the “ED50 … of acetic acid induced writhing” value is 40˜50 μg/kg. Also, in series [5], the “frequency of writhing induced” value was “dose-dependent decrease” and the “ED50 … of acetic acid induced writhing” value was 300˜350 μg/kg. For the same molecule, in series [6], the “frequency of writhing induced” value is on record as “dose-dependent decrease”, the “duration of analgesic effect” value is not below 6 h, the “ED50 … of acetic acid induced writhing” value was 38˜46 μg/kg and the “time at which analgesic effect started” value came to 30 min. In addition, the respiratory inhibition result in series [7] was “No respiratory inhibition was observed”.
